# In patent publication US20250206839A1, “METHODS, COMPOSITIONS AND USES FOR SEMA7A MONOCLONAL ANTIBODIES” (THE REGENTS OF THE UNIVERSITY OF COLORADO, A BODY CORPORATE, priority 2022, published 2025):
# T1: SEMA7A (Homo sapiens, UniProt O75326)
# T1 construct: MCF7 cells endogenously express SEMA7A (75 kDa); endogenous in cells; host or cells: MCF7
# T1 sequence (O75326 45-648): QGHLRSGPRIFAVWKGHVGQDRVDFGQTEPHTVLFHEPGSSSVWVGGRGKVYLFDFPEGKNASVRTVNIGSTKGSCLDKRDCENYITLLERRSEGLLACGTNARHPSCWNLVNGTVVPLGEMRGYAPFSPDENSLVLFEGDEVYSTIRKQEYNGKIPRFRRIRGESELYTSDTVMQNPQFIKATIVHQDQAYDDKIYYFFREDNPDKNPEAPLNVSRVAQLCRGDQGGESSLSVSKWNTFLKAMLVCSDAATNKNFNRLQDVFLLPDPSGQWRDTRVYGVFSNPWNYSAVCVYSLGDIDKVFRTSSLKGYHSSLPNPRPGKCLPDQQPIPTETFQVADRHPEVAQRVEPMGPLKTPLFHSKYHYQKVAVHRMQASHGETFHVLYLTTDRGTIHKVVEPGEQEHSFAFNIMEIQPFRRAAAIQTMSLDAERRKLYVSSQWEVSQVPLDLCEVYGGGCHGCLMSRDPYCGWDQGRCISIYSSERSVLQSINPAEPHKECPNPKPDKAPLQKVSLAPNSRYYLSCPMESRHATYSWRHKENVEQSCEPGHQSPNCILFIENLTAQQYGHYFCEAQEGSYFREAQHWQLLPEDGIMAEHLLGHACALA
# B1: SmAbH1: mouse monoclonal antibody against SEMA7A generated using the 10-mer immunizing peptide … (SEQ ID NO: 2) (antibody, V domains shown)
# VH: QVKLQESGTVLARPGASVKMSCKASVYSFTSYWMHWVKQRPGQGLEWIGAIYPGNSDTSYNQKFKGKAKLTAVTSASTAYMELSSLTNEDSAVYYCTRGGAPTMITAYYAMDYWGQGTSVTVSS
# VL: DIQMTQTTSSLSASLGDRVTISCRASQDISNYLNWYQQKPDGTVKLLIYYTSRLHSGVPSRFSGSGSGTDYSLTISNLEQEDIATYFCQQGNTLPWTFGGGTKLEIKR
# How the values were obtained:
# [1] = test system: SEMA7A OE E0771 mouse mammary carcinoma cells; assay: E0771 SEMA7A OE mouse mammary carcinoma model, in vivo antibody treatment; settings: SmAbH1 alone
# Description: (§1) For initial in vivo studies with SmABHI. SEMA7A OE E0771 mouse mammary carcinoma cells were injected into mice. Twenty days after carcinoma cells were injected. SmAbH1 (e.g., 12 ug) was administered intraperitoneally to the mice every three days until day 36 post-carcinoma cell injection. Tissues were collected at day 36. Tumors, lungs, and LNs were harvested and processed for IHC and flow cytometry to determine the effect of SEMA7A mAb therapy on cells of the tumor microenvironment (TME). In an additional experiment, tumors were treated at day 28 post-injection with a novel SEMA7A directed antibody, monoclonal antibody clone H1. Fully regressed tumors were removed from treatment at day 50) and the animals were re-challenged with an additional tumor inoculation at day 90 to assess SEMA7A mAb effects. Finally, to examine changes in immune cells in the tumor microenvironment, tumors were treated at day 13 post-inoculation and harvested at day 18. During this time period, tumors were actively regressing (FIGS. 2A-2C).
# E0771 model: Female C57/BL6 mice were injected orthotopically into the left and right #4 mammary fat pads with 200,000 E0771 SEMA7A OE mouse mammary carcinoma cells. Tumors were measured every day once tumors became palpable (3 days post injection). […]
# [2] = test system: activated T cells in the tumors; assay: Flow cytometry of immune cells in treated tumors; assay type: in vivo, mouse; settings: IFNg and TNFa on CD8+ T cells
# Description: as §1, with “Finally, to examine changes in immune cells in the tumor microenvironment, tumors were treated at day 13 post-inoculation and harvested at day 18. During this time period, tumors were actively regressing (FIGS. 2A-2C).” left out
# Tumors were separated from the mammary gland and placed in six-well plates with 2 mL of Click's media without mercaptoethanol or L-glutamine (Irvine Scientific, Santa Ana, CA), where they were minced with scalpels, digested with 500 units/ml collagenase type II and IV and 20 μg/ml DNase (Worthington Biochemical Corporation, Lakewood, NJ) and incubated for 1 h at 37° C. […] Geometric mean fluorescence intensity (gMFI) was calculated with FlowJo software. […] Cells were then stained with CD8, CD45, CD4, Gating was determined based on unstimulated controls. […]
# [3] = target: T1, SEMA7A; assay: Western blot binding on MCF7 control and SEMA7A OE cell lysates; settings: 200 μg/mL antibody
# Description: In another exemplary method, the ability of an anti-SEMA7A monoclonal antibody to bind to SEMATA was tested. In one exemplary method, CUH1 mAb was validated for binding to MCF7 SEMA7A over expressing cell lysate using Western Blot. Specifically. binding of the CUH1 mAb was detected on lysates from MCF7 control cells and SEMA7A overexpressing (OE) cells using 200 μg/mL of SmAbH1. MCF7 cells endogenously express SEMA7A (75 kDa) but OE cells were engineered to overexpress V5 tagged
# MCF7 cells were lysed with RIPA containing EDTA (Thermo Scientific) and spun at 14K for 15 min. The supernatant was then quantitated using a Qubit Assay (Invitrogen) standard protocol and mixed 3:1 with Laemmli Sample Buffer (BioRad) with 2-mercaptoethanol and heated at 70 degrees for 10 min. 100 μg of lysate was loaded onto 4-20% Tris-Glycine gel (BioRad) and transferred to a PVDF membrane (Milipore). The membrane was blocked with 5% Bovine Serum Albumin (BSA) for 3 hours and then probed with 200 μg/ml of CUH1 in 5% BSA overnight at 4 degrees with gentle rocking. The membrane was washed three times 15 minutes with TBS-T and then probed with 10 ng/ml Goat Anti-Mouse IgG HRP (Abcam 97040) in 5% BSA for 1 hour at room temp. The membrane was washed and then incubated with 1:1 mix SuperSignal West Pico (Thermo Scientific) for 4 min at room temp.
molecule,measurement,setting,value
B1,tumor growth and metastasis compared to anti-PD-L1 and the combination,[1],superior at reducing both tumor growth and metastasis
same,activated T cells in the tumors,[2],increased presence of activated T cells
same,binding to SEMA7A in cell lysates,[3],successfully bound to both endogenous (75 kDa) and overexpressed (100 kDa) SEMA7A
